Starred links: 1 amine or outer side, 2 acyl side, 3 side chain; linkers in the order of their positions; H or OH if unused. Non-standard residues stand in square brackets, D forms with d. TyrEtNAc = (2S)-3-[4-(2-acetamidoethoxy)phenyl]-2-amino-propanoic acid, CC(=O)NCCOc1ccc(C[C@H](N[*:1])C(=O)[*:2])cc1; Phe3Cl4COOH = (S)-4-(2-amino-2-carboxyethyl)-2-chlorobenzoic acid, O=C([C@H](Cc1ccc(C(=O)[*:3])c(Cl)c1)N[*:1])[*:2]; 4PyrimAla = (2S)-2-amino-3-pyrimidin-4-yl-propanoic acid, O=C([C@H](Cc1ccncn1)N[*:1])[*:2]; Phe(4-(5-CO2H-2-pyrimidyl)) = N[C@@H](Cc1ccc(-c2ncc(C(=O)O)cn2)cc1)C(=O)O; Phe(4-(4-Ac-piperazinyl)) = CC(=O)N1CCN(c2ccc(C[C@H](N)C(=O)O)cc2)CC1; Trp(4-Cl)(βS-Me) = C[C@@H](c1c[nH]c2cccc(Cl)c12)[C@H](N)C(=O)O; dPro(4R-(4-pyridylmethyl)) = O=C(O)[C@H]1C[C@@H](Cc2ccncc2)CN1; Trp(βS-Me,4-F) = C[C@@H](c1c[nH]c2cccc(F)c12)[C@H](N)C(=O)O; Bip(4'-COOH) = N[C@@H](Cc1ccc(-c2ccc(C(=O)O)cc2)cc1)C(=O)O; Ala(1-bicyclo(1.1.1)pentyl) = N[C@@H](CC12CC(C1)C2)C(=O)O; dPro(4R-Bzl(4-F)) = O=C(O)[C@H]1C[C@@H](Cc2ccc(F)cc2)CN1; dPro(3S-(4-F-Bn)) = O=C(O)[C@@H]1NCC[C@@H]1Cc1ccc(F)cc1; Phe(2-Cl,4-COOH) = N[C@@H](Cc1ccc(C(=O)O)cc1Cl)C(=O)O; 1Nal(3S-Me) = C[C@@H](c1cccc2ccccc12)[C@H](N)C(=O)O; Ala(pyrimidin-5-yl) = N[C@@H](Cc1cncnc1)C(=O)O; Phe(4-COOH) = N[C@@H](Cc1ccc(C(=O)O)cc1)C(=O)O; Pro(cis-4-F) = O=C(O)[C@@H]1C[C@H](F)CN1; Ala(4-THP) = N[C@@H](CC1CCOCC1)C(=O)O; d(αMeD) = C[C@@](N)(CC(=O)O)C(=O)O; 4Pal = N[C@@H](Cc1ccncc1)C(=O)O; aThr = C[C@H](O)[C@H](N)C(=O)O; d(αMeS) = C[C@@](N)(CO)C(=O)O; Cba = N[C@@H](CC1CCC1)C(=O)O; Dab = NCC[C@H](N)C(=O)O; Aib = CC(C)(N)C(=O)O
B1: SEQ ID NO 365 (peptide)
peptide: cyclo([Phe(4-(4-Ac-piperazinyl))][4Pal][Phe(2-Cl,4-COOH)]G[Pro(cis-4-F)][Trp(βS-Me,4-F)][Aib]SW[Aib][Ala(pyrimidin-5-yl)]Q[Dab]G[dPro(4R-(4-pyridylmethyl))])
SMILES: CC(=O)N1CCN(c2ccc(C[C@@H]3NC(=O)[C@H]4C[C@@H](Cc5ccncc5)CN4C(=O)CNC(=O)[C@H](CCN)NC(=O)[C@H](CCC(N)=O)NC(=O)[C@H](Cc4cncnc4)NC(=O)C(C)(C)NC(=O)[C@H](Cc4c[nH]c5ccccc45)NC(=O)[C@H](CO)NC(=O)C(C)(C)NC(=O)[C@H]([C@@H](C)c4c[nH]c5cccc(F)c45)NC(=O)[C@@H]4C[C@H](F)CN4C(=O)CNC(=O)[C@H](Cc4ccc(C(=O)O)cc4Cl)NC(=O)[C@H](Cc4ccncc4)NC3=O)cc2)CC1
B2: SEQ ID NO 362 (peptide)
peptide: cyclo([TyrEtNAc][4Pal][Phe(4-COOH)]G[Pro(cis-4-F)][Trp(4-Cl)(βS-Me)][Aib]SW[d(αMeD)][Ala(4-THP)]Q[Dab]G[dPro(4R-(4-pyridylmethyl))])
SMILES: CC(=O)NCCOc1ccc(C[C@@H]2NC(=O)[C@H]3C[C@@H](Cc4ccncc4)CN3C(=O)CNC(=O)[C@H](CCN)NC(=O)[C@H](CCC(N)=O)NC(=O)[C@H](CC3CCOCC3)NC(=O)[C@@](C)(CC(=O)O)NC(=O)[C@H](Cc3c[nH]c4ccccc34)NC(=O)[C@H](CO)NC(=O)C(C)(C)NC(=O)[C@H]([C@@H](C)c3c[nH]c4cccc(Cl)c34)NC(=O)[C@@H]3C[C@H](F)CN3C(=O)CNC(=O)[C@H](Cc3ccc(C(=O)O)cc3)NC(=O)[C@H](Cc3ccncc3)NC2=O)cc1
B3: SEQ ID NO 364 (peptide)
peptide: cyclo([Bip(4'-COOH)][4Pal][Phe(4-COOH)]G[Pro(cis-4-F)][Trp(βS-Me,4-F)][Aib]SW[d(αMeS)][Ala(4-THP)]Q[Dab]G[dPro(4R-(4-pyridylmethyl))])
SMILES: C[C@@H](c1c[nH]c2cccc(F)c12)[C@@H]1NC(=O)[C@@H]2C[C@H](F)CN2C(=O)CNC(=O)[C@H](Cc2ccc(C(=O)O)cc2)NC(=O)[C@H](Cc2ccncc2)NC(=O)[C@H](Cc2ccc(-c3ccc(C(=O)O)cc3)cc2)NC(=O)[C@H]2C[C@@H](Cc3ccncc3)CN2C(=O)CNC(=O)[C@H](CCN)NC(=O)[C@H](CCC(N)=O)NC(=O)[C@H](CC2CCOCC2)NC(=O)[C@@](C)(CO)NC(=O)[C@H](Cc2c[nH]c3ccccc23)NC(=O)[C@H](CO)NC(=O)C(C)(C)NC1=O
B4: SEQ ID NO 363 (peptide)
peptide: cyclo([TyrEtNAc][4Pal][Phe(2-Cl,4-COOH)]G[Pro(cis-4-F)][1Nal(3S-Me)][Aib]SW[d(αMeD)][Ala(4-THP)]Q[Dab]G[dPro(4R-(4-pyridylmethyl))])
SMILES: CC(=O)NCCOc1ccc(C[C@@H]2NC(=O)[C@H]3C[C@@H](Cc4ccncc4)CN3C(=O)CNC(=O)[C@H](CCN)NC(=O)[C@H](CCC(N)=O)NC(=O)[C@H](CC3CCOCC3)NC(=O)[C@@](C)(CC(=O)O)NC(=O)[C@H](Cc3c[nH]c4ccccc34)NC(=O)[C@H](CO)NC(=O)C(C)(C)NC(=O)[C@H]([C@@H](C)c3cccc4ccccc34)NC(=O)[C@@H]3C[C@H](F)CN3C(=O)CNC(=O)[C@H](Cc3ccc(C(=O)O)cc3Cl)NC(=O)[C@H](Cc3ccncc3)NC2=O)cc1

The binders below were run against Recombinant human IL-1β (BioLegend 579404) (human, UniProt P01584 117-269) (assay: cell-based or functional assay).

Which “MRC5 IC50” value does the source give for cyclo([Bip(4'-COOH)][4Pal][Phe(4-COOH)]G[Pro(cis-4-F)][Trp(βS-Me,4-F)][Aib]EW[Aib][4PyrimAla]Q[Dab]G[dPro(4R-Bzl(4-F))]) (ring closure inferred) [SEQ ID NO 345] here?
Its value is 0.012 nM.

With cyclo([Bip(4'-COOH)][4Pal][Phe(2-Cl,4-COOH)]G[Pro(cis-4-F)][Trp(βS-Me,4-F)][Aib]SW[d(αMeD)][aThr]Q[Dab]G[dPro(4R-(4-pyridylmethyl))]) (ring closure inferred) [SEQ ID NO 356] as the binder, how does the “MRC5 IC50” value read?
Its value is 0.011 nM.

Which “MRC5 IC50” value does the source give for cyclo([Bip(4'-COOH)][Ala(1-bicyclo(1.1.1)pentyl)][Phe(4-COOH)]G[Pro(cis-4-F)][Trp(βS-Me,4-F)][Aib]SW[d(αMeD)][Cba]Q[Dab]G[dPro(4R-(4-pyridylmethyl))]) (ring closure inferred) [SEQ ID NO 348] here?
The value was 0.018 nM.

cyclo([Phe(4-(4-Ac-piperazinyl))][4Pal][Phe(4-COOH)]G[Pro(cis-4-F)][Trp(βS-Me,4-F)][Aib]SW[d(αMeS)][Ala(pyrimidin-5-yl)]Q[Dab]G[dPro(4R-(4-pyridylmethyl))]) (ring closure inferred) [SEQ ID NO 350] was tested. Which “MRC5 IC50” value did it give?
Its value is 0.02 nM.

For cyclo([Bip(4'-COOH)][4Pal][Phe(4-COOH)]G[Pro(cis-4-F)][Trp(βS-Me,4-F)][Aib]EW[Aib][Ala(pyrimidin-5-yl)]Q[Dab]G[dPro(3S-(4-F-Bn))]) (ring closure inferred) [SEQ ID NO 346], which “MRC5 IC50” value is on record?
Its value is 0.01 nM.

cyclo([Phe(4-(5-CO2H-2-pyrimidyl))][4Pal][Phe3Cl4COOH]G[Pro(cis-4-F)][Trp(βS-Me,4-F)][Aib]SW[d(αMeD)][Ala(4-THP)]Q[Dab]G[dPro(4R-(4-pyridylmethyl))]) (ring closure inferred) [SEQ ID NO 361] was tested. Which “MRC5 IC50” value did it give?
The value was 0.022 nM.

For cyclo([Bip(4'-COOH)][4Pal][Phe(4-COOH)]G[Pro(cis-4-F)][1Nal(3S-Me)][Aib]SW[d(αMeD)][aThr]Q[Dab]G[dPro(4R-(4-pyridylmethyl))]) (ring closure inferred) [SEQ ID NO 357], which “MRC5 IC50” value is on record?
Its value is 0.017 nM.

How did the “MRC5 IC50” value turn out when cyclo([Phe(4-(5-CO2H-2-pyrimidyl))][4Pal][Phe(2-Cl,4-COOH)]G[Pro(cis-4-F)][1Nal(3S-Me)][Aib]SW[d(αMeD)][Ala(4-THP)]Q[Dab]G[dPro(4R-(4-pyridylmethyl))]) (ring closure inferred) [SEQ ID NO 360] was run?
The value was 0.019 nM.

For cyclo([Bip(4'-COOH)][4Pal][Phe(4-COOH)]G[Pro(cis-4-F)][Trp(βS-Me,4-F)][Aib]SW[d(αMeS)]LQ[Dab]G[dPro(4R-(4-pyridylmethyl))]) (ring closure inferred) [SEQ ID NO 347], which “MRC5 IC50” value is on record?
The value was 0.025 nM.

Which “MRC5 IC50” value does the source give for cyclo([Phe(4-(5-CO2H-2-pyrimidyl))][4Pal][Phe(4-COOH)]G[Pro(cis-4-F)][Trp(βS-Me,4-F)][Aib]SW[d(αMeD)][Ala(4-THP)]Q[Dab]G[dPro(4R-(4-pyridylmethyl))]) (ring closure inferred) [SEQ ID NO 351] here?
The value was 0.016 nM.

How did the “MRC5 IC50” value turn out when cyclo([Bip(4'-COOH)][4Pal][Phe(2-Cl,4-COOH)]G[Pro(cis-4-F)][1Nal(3S-Me)][Aib]SW[d(αMeD)][aThr]Q[Dab]G[dPro(4R-(4-pyridylmethyl))]) (ring closure inferred) [SEQ ID NO 354] was run?
The value was 0.014 nM.

How did the “MRC5 IC50” value turn out when cyclo([Bip(4'-COOH)][4Pal][Phe(4-COOH)]G[Pro(cis-4-F)][Trp(βS-Me,4-F)][Aib]SW[d(αMeD)][aThr]Q[Dab]G[dPro(4R-(4-pyridylmethyl))]) (ring closure inferred) [SEQ ID NO 359] was run?
The value was 0.011 nM.

cyclo([Bip(4'-COOH)][4Pal][Phe(4-COOH)]G[Pro(cis-4-F)][Trp(βS-Me,4-F)][Aib][aThr]W[d(αMeD)][Ala(4-THP)]Q[Dab]G[dPro(4R-(4-pyridylmethyl))]) (ring closure inferred) [SEQ ID NO 353] was tested. Which “MRC5 IC50” value did it give?
The value was 0.017 nM.

For cyclo([Bip(4'-COOH)][4Pal][Phe(4-COOH)]G[Pro(cis-4-F)][Trp(βS-Me,4-F)][Aib][aThr]W[d(αMeS)][aThr]Q[Dab]G[dPro(4R-(4-pyridylmethyl))]) (ring closure inferred) [SEQ ID NO 352], which “MRC5 IC50” value is on record?
The value was 0.023 nM.

For cyclo([Bip(4'-COOH)][Ala(1-bicyclo(1.1.1)pentyl)][Phe(4-COOH)]G[Pro(cis-4-F)][Trp(βS-Me,4-F)][Aib]SW[d(αMeD)]LQ[Dab]G[dPro(4R-(4-pyridylmethyl))]) (ring closure inferred) [SEQ ID NO 349], which “MRC5 IC50” value is on record?
Its value is 0.017 nM.

With cyclo([Bip(4'-COOH)][4Pal][Phe(2-Cl,4-COOH)]G[Pro(cis-4-F)][Trp(4-Cl)(βS-Me)][Aib]SW[d(αMeD)][aThr]Q[Dab]G[dPro(4R-(4-pyridylmethyl))]) (ring closure inferred) [SEQ ID NO 355] as the binder, how does the “MRC5 IC50” value read?
The value was 0.013 nM.

Which “MRC5 IC50” value does the source give for cyclo([Bip(4'-COOH)][4Pal][Phe(4-COOH)]G[Pro(cis-4-F)][Trp(4-Cl)(βS-Me)][Aib]SW[d(αMeD)][aThr]Q[Dab]G[dPro(4R-(4-pyridylmethyl))]) (ring closure inferred) [SEQ ID NO 358] here?
The value was 0.013 nM.

Biological target: Recombinant human IL-1β (BioLegend 579404) (human, UniProt P01584 117-269)
Assay: cell-based or functional assay
Remark: another data set of the same source

How did the “MRC5 IC50” value turn out when B1 was run?
The value was 0.023 nM.

B2 was tested. Which “MRC5 IC50” value did it give?
The value was 0.023 nM.

With B3 as the binder, how does the “MRC5 IC50” value read?
The value was 0.015 nM.

For B4, which “MRC5 IC50” value is on record?
The value was 0.021 nM.
